Laboratory results: article PMC8944867 (Proceedings of the National Academy of Sciences of the …, 2022)

Assays:
[1] = molecular target: T1, IpaH1.4 LRR domain (S. flexneri, UniProt A0A0H2USG1 38-283); assay: ITC
T1 sequence: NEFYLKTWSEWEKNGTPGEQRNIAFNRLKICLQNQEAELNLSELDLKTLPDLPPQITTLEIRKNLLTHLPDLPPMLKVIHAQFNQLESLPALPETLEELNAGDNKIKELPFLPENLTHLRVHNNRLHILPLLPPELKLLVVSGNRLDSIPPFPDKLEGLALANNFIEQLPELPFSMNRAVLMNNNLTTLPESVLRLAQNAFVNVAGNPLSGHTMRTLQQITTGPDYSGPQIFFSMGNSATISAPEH

[2] = molecular target: T2, HOIP UBA domain (human, UniProt Q96EP0 480-636); assay: ITC
T2 sequence: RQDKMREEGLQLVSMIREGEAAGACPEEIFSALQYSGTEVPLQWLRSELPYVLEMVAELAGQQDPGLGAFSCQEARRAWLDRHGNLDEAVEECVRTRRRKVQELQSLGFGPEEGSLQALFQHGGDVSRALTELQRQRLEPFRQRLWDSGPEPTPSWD

B1: HOIL-1L UBL domain (domain or fragment)
chain: QDIRLWVSVEDAQMHTVTIWLTVRPDMTVASLKDMVFLDYGFPPVLQQWVIGQRLARDQETLHSHGVRQNGDSAYLYLLSARN
Kd [1]: 10.7 µM | Kd [2]: 3.9 ± 0.4 µM
